The text below walks through data of patent US20180214569A1 (Regeneron, published 2018).

Holding throughout (test): ELISA, plate coated with toxin component
(ELISA stands for enzyme-linked immunosorbent assay.)

The target of experiment [1] is T1, LukD (GS) (Staphylococcus aureus, UniProt O54082 27-327).
T1 sequence: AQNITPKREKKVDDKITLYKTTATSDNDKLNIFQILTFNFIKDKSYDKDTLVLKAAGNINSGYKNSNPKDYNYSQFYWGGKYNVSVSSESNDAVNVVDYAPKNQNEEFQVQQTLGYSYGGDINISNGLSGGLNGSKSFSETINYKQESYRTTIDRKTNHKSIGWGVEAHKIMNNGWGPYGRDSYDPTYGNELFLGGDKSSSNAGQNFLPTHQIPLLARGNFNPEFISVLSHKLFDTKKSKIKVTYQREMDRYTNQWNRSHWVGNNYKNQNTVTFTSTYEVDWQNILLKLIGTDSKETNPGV

The target of experiment [2] is S. aureus delta toxin (Staphylococcus aureus, UniProt P0C1V1 1-26).
Experiment [3] has as its target T2, HlgB (GS) (Staphylococcus aureus, UniProt P0A077 26-325).
T2 sequence: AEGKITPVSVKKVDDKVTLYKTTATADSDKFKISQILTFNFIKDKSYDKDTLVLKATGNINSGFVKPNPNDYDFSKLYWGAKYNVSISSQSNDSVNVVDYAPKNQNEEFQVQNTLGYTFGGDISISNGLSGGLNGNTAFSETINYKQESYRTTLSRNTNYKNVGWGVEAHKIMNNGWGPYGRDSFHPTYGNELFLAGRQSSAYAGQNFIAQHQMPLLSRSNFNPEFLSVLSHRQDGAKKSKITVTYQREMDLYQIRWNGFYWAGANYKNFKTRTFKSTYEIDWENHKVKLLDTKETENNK

B1: H1H15378P (antibody, V domains shown)
VH: EVQLVESGGGLVQPGGSLRLSCAASGFTFNNYEMNWVRQAPGKGLEWVSFISSSGSTIDYAVSVKGRFTISRDNAKNSLYLQMNSLRPGDTAVYYCARARLDFYYYGMDVWGQGTTVTVSS
VL: DIQMTQSPSSLSASVGDRVTITCRASQGISNYLAWFQQKPGKAPKSLIYATSTLQSGVPSKFSGSGSGTDFTLTISSLQPEDFATYYCQQYNSFPLTFGGGTKVEIK
As to B1, the binding result in experiment [1], in experiment [2] and in experiment [3] was “no binding (tested: titration 50 uM-100 pM)” throughout.

B2: H1H15379P (antibody, V domains shown)
VH: EVQLVESGGGLVQPGWSLRLSCAASGFTFDDYAMHWVRQAPGKGLEWVSGISWNSDDIDYTDSVKGRFTVSRDNAKNSLYLQMNSLRADDTAFYYCVRQRVRGYYYFGMDVWGQGTTVTVSS
VL: DIQMTQSPSSLSASVGDRVTITCRASQGISNYLAWFQQKPGKAPMSLIYAASSLQSGVPSKFSGSGSGTDFTLTISSLQPEDFATYYCQQYNSYPFTFGPGTKVDIK
With B2, the binding result in experiment [1], in experiment [2] and in experiment [3] was “no binding (tested: titration 50 uM-100 pM)” each time.

B3: H1H15377P (antibody, V domains shown)
VH: EVQLVESGGGLVQPGGSLRLSCAASGFTFTSYEMNWVRQAPGKGLEWISYISSGGDTKYYADSVRGRFTISRDNAKNSLYLQMNSLRAEDTALYYCARDVLNWVFDYWGRGTLVTVSS
VL: DIQMTQSPSSLSASVGDRVTITCRASQSIGKYLNWYRQSPGKAPKLLIYATSSLQSGVPSSFSGSGSGTDFTLTISSLQPEDFATYYCQQGFRTPFTFGPGTKVDIK
Turning to B3, the binding result in experiment [1], in experiment [2] and in experiment [3] was “no binding (tested: titration 50 uM-100 pM)” in each case.

B4: H1H15399P (antibody, V domains shown)
VH: EVQLVESGGGLVQPGGSLRLSCAASGFTFSSSAMSWVRQAPGKGLEWVSTLNVGADSTFYAGSVRGRFTISRDNSKNTLFLQMNSLRAEDTAVYYCAKDWGGIPYYYYYYGMDVWGQGTTVTVSS
VL: DIQLTQSPSFLSASVGDRVTITCWASQGISSYLAWYQQKPGKAPNLLIYTASTLQSGVPSRFSGSGSGTEFTLTISSLQPEDFATYYCQQLNSYPLTFGGGTKVEIK
With B4, the binding result in experiment [1], in experiment [2] and in experiment [3] was “no binding (tested: titration 50 uM-100 pM)” throughout.

B5: H1H15380P (antibody, V domains shown)
VH: QVQLQESGPGLVKPSETLSLMCTVSGGSINNYYWSWIRQPPGKGLEWIGYIYNGGITKYNPSLKSRVTISVDTSKSQISLKLNSVTAADTAFYYCTKEQLERREGHIWFDPWGQGTLVTVSS
VL: DIQMTQSPSSLSASVGDRVTITCRASQTINNYLNWYHQKPGKAPKLLIYGTSSLQSGVPSRFSGSGSGTEFALTISSLQPEDFATYYCQQSSSTPYTFGQGTKLEIK
On to B5, for which the binding result in experiment [1], in experiment [2] and in experiment [3] was “no binding (tested: titration 50 uM-100 pM)” in each case.

B6: H1H15375P (antibody, V domains shown)
VH: QVQLVESGGGGVQPGRSLRLSCEASGFTFSDYGMQWVRQAPGKGLEWVAVIWDDGRKKYYADSVKGRFTVSRDNSKNTLYLEINSLRVEDTAVYYCAREGSSSSGRYFLYGMDVWGQGTTVTVSS
VL: DIQMTQSPSSLSASVGDRVTITCRASQRISSYLNWYQQKLGKAPKLLISVASSLQSGVPSRFSGSGSGTDFTLTISSLQPEDFGIYYCQQSYNTPPWTFGQGTKVEIK
Regarding B6, the binding result in experiment [2] is given as “no binding (tested: titration 50 uM-100 pM)”.
